To fix the notation:
B1: ALADLTGTV (peptide)
peptide: ALADLTGTV
B2: ALAGLVYDA (peptide)
peptide: ALAGLVYDA
B3: YLWWVNDQSL (peptide)
peptide: YLWWVNDQSL
B4: RLLDETVDVTI (peptide)
peptide: RLLDETVDVTI
B5: YLDGTFRLL (peptide)
peptide: YLDGTFRLL
B6: SLLRDFTLV (peptide)
peptide: SLLRDFTLV
B7: SLDDSLNEL (peptide)
peptide: SLDDSLNEL
B8: NLADNTILV (peptide)
peptide: NLADNTILV
B9: VLDGTEVNL (peptide)
peptide: VLDGTEVNL
B10: GLDRTQLVNV (peptide)
peptide: GLDRTQLVNV
B11: SMASFLKDV (peptide)
peptide: SMASFLKDV
B12: ILLDKSTVL (peptide)
peptide: ILLDKSTVL
B13: KLDASLPAL (peptide)
peptide: KLDASLPAL
B14: YLGAVFDL (peptide)
peptide: YLGAVFDL
B15: YLHGFDLSL (peptide)
peptide: YLHGFDLSL
B16: KLLDGSQRV (peptide)
peptide: KLLDGSQRV
B17: FISDFTMTI (peptide)
peptide: FISDFTMTI
B18: KILDFTGPLFL (peptide)
peptide: KILDFTGPLFL
B19: ALDSTNSEL (peptide)
peptide: ALDSTNSEL
B20: NLLDHSSMFL (peptide)
peptide: NLLDHSSMFL
B21: KMLDETVLV (peptide)
peptide: KMLDETVLV
B22: FLNPDGSDCTL (peptide)
peptide: FLNPDGSDCTL
B23: FLKDVTAQI (peptide)
peptide: FLKDVTAQI
B24: FLNVDVSEV (peptide)
peptide: FLNVDVSEV
B25: AVDKTQTSV (peptide)
peptide: AVDKTQTSV
B26: ALDSSLQLL (peptide)
peptide: ALDSSLQLL
B27: SLFIDVTRV (peptide)
peptide: SLFIDVTRV
B28: LLDDQTVTF (peptide)
peptide: LLDDQTVTF
B29: ALMDVSQNV (peptide)
peptide: ALMDVSQNV
B30: KLAPEDLADLTAL (peptide)
peptide: KLAPEDLADLTAL
B31: RLQDTTIGL (peptide)
peptide: RLQDTTIGL
B32: KLAPDLTEL (peptide)
peptide: KLAPDLTEL
B33: YLADFSHAT (peptide)
peptide: YLADFSHAT
B34: NLLADVSTV (peptide)
peptide: NLLADVSTV
B35: LLDTTDVYL (peptide)
peptide: LLDTTDVYL
B36: AIDQTITEA (peptide)
peptide: AIDQTITEA
B37: KLHDTSFCL (peptide)
peptide: KLHDTSFCL
B38: LLDITNPVL (peptide)
peptide: LLDITNPVL
B39: VLKDGTLVI (peptide)
peptide: VLKDGTLVI
B40: SLLDENDVSSYL (peptide)
peptide: SLLDENDVSSYL
B41: NMYDLTFHV (peptide)
peptide: NMYDLTFHV
B42: ILFDPDNSSAL (peptide)
peptide: ILFDPDNSSAL

The target of the experiment is T1, HLA-A*02:01 (human).
T1 construct: MHC monomers first loaded with a UV-sensitive peptide (not identified) that is cleaved and exchanged for the test peptide; captured on streptavidin-coated plates and detected with anti-β2m; also called peptide-receptive MHC molecules; MHC class I
The experiment can be described thus: UV-ligand exchange, anti-b2m ELISA; peptide exchange yield grade. The source says:
Candidate peptides for T cell based therapies according to the present invention were further tested for their MHC binding capacity (affinity). The individual peptide-MHC complexes were produced by UV-ligand exchange, where a UV-sensitive peptide is cleaved upon UV-irradiation and exchanged with the peptide of interest as analyzed. Only peptide candidates that can effectively bind and stabilize the peptide-receptive MHC molecules prevent dissociation of the MHC complexes. To determine the yield of the exchange reaction, an ELISA was performed based on the detection of the light chain (β2m) of stabilized MHC complexes. The assay was performed as generally described in Rodenko et al. (Rodenko et al., 2006).
96 well MAXISorp plates (NUNC) were coated over night with 2 μg/ml streptavidin in PBS at room temperature, washed 4× and blocked for 1 h at 37° C. in 2% BSA containing blocking buffer. Refolded HLA-A*02:01/MLA-001 monomers served as standards, covering the range of 15-500 ng/ml. Peptide-MHC monomers of the UV-exchange reaction were diluted 100-fold in blocking buffer. Samples were incubated for 1 h at 37° C., washed four times, incubated with 2 μg/ml HRP conjugated anti-β2m for 1h at 37° C., washed again and detected with TMB solution that is stopped with […]. Absorption was measured at 450 nm. Candidate peptides that show a high exchange yield (preferably higher than 50%, most preferred higher than 75%) are generally preferred for a generation and production of antibodies or fragments thereof, and/or T cell receptors or fragments thereof, as they show sufficient avidity to the MHC molecules and prevent dissociation of the MHC complexes.
For the molecule B1, the peptide exchange yield was not below 75%. As for B2, the figure is not below 75%; as for B3, not below 75%; as for B4, not below 75%. Under B5 stands 50 to 75%. Take B6: the peptide exchange yield was not below 75%. For B7, the peptide exchange yield is 50 to 75%. The molecule B8 registered a peptide exchange yield not below 75%. B9 registered a peptide exchange yield not below 75%. As for B10, the figure is not below 75%. As for B11, the figure is not below 75%; as for B12, not below 75%.

As to B13, the peptide exchange yield was not below 75%. Turning to B14, the peptide exchange yield was not below 75%. As for B15, the figure is not below 75%. As for B16, the figure is 50 to 75%; as for B17, not below 75%; as for B18, not below 75%.

Molecule B19 came in with a peptide exchange yield not below 75%. On to B20, for which the peptide exchange yield is not below 75%. As for B21, the figure is 50 to 75%. B22 yielded a peptide exchange yield not below 75%. For B23, the peptide exchange yield was not below 75%.

Molecule B24 came in with a peptide exchange yield not below 75%. B25 registered a peptide exchange yield of 50 to 75%. Under B26 stands not below 75%; under B27, not below 75%. In the case of B28, the peptide exchange yield fell in the range of 50 to 75%. For B29, the peptide exchange yield is not below 75%. As for B30, the figure is not below 75%. Under B31 stands not below 75%; under B32, 50 to 75%.

Regarding B33, the peptide exchange yield is not below 75%. As for B34, the figure is 50 to 75%; as for B35, 50 to 75%.

In turn, B36 yielded a peptide exchange yield of 50 to 75%.

In the case of B37, the peptide exchange yield was not below 75%. In turn, B38 showed a peptide exchange yield not below 75%.

B39 gave a peptide exchange yield of 20 to 50%.

For B40, the peptide exchange yield was not below 75%.

Molecule B41 had a peptide exchange yield not below 75%. For the molecule B42, the peptide exchange yield is not below 75%.
